Results published in patent US20160272707A1 (COMPUGEN, published 2016).

B1: 50-01.B01 (antibody, V domains shown)
VH: QVQLQESGPGLMKPSQTLSLTCTVSGDSITRGSSYWSWIRQSDGKGLEWIGHIYSGGDTDYNPALKSRVTISADASRGQFLLRLTSMTAADTAVYYCARDRGAYGMDVWGQGTTVTVSS
VL: QPVLTQSSSASASLGASVKLTCTLSSEHDRYAIAWLQQKPEKGPRYLMKVNSDGSHRKGDGIPDRFSGSSSGAERYLTISRLQSEDEADYYCQTWGIGIRVFGGGTQLTVLG
notes: also called 50-01.801
B2: 53-01.B11 (antibody, V domains shown)
VH: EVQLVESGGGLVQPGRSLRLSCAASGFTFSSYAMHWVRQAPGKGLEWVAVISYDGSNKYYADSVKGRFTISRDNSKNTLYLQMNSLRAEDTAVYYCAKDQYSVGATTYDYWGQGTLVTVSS
VL: QPVLTQSSSASASLGASVKLTCSLSSGHSSYAIAWHQQQPEKGPRYLMKLNSDGSHSKGDGIPDRFSGSSSGAERYLTISSLQSEDEADYYCQTWGSGIQVFGGGTKLTVLG
notes: also called S53-01-B11; S53-01.B11

Columns and labels:
VSTM5 monomer [1] = molecular target: T1, VSTM5 monomer (UniProt A8MXK1 29-147, limits assumed); assay: SPR, VSTM5 monomer binding to the IgG
T1 construct: also called monomeric VSTM5 antigen; VSTM5 antigen
T1 sequence (looked up): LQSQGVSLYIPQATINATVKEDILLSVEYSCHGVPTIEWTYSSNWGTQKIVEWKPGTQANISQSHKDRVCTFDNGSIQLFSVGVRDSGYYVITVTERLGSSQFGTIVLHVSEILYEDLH

VSTM5 monomer [2] = molecular target: T1, VSTM5 monomer; assay: SPR, VSTM5 monomer binding to the IgG (equilibrium binding constant)
[3] = molecular target: T2, mouse VSTM5 (SEQ ID NO:11) expressed on HEK-293T cells (mouse, UniProt Q9D806 28-199); assay: FACS, IgG1 at 22 nM on 293-muVSTM5 cells; grade from ratio to 293-MT control cells (50-400)
T2 construct: also called mouse VSTM5 untagged
T2 sequence: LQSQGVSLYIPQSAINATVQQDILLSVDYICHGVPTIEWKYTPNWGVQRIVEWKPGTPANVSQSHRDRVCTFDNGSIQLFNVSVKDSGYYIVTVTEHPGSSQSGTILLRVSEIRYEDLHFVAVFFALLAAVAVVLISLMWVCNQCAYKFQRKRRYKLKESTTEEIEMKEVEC

[4] = molecular target: T3, human VSTM5-EGFP (SEQ ID NO:133) expressed on HEK-293 cells (human); assay: FACS, IgG1 at 22 nM on 293-huVSTM5 (VSTM5-EGFP) cells; grade from ratio to 293-MT control cells (50-400)
T3 construct: Full-length human VSTM5 fused at its C-terminus to EGFP; also called VSTM5_GFP

[5] = molecular target: T2, mouse VSTM5 (SEQ ID NO:11) expressed on …; assay: FACS, IgG1 at 22 nM on 293-muVSTM5 cells; grade from ratio to 293-MT control cells (850-2000)
[6] = molecular target: T3, human VSTM5-EGFP (SEQ ID NO:133) …; assay: FACS, IgG1 at 22 nM on 293-huVSTM5 (VSTM5-EGFP) cells; grade from ratio to 293-MT control cells (850-2000)
[7] = molecular target: T2, mouse VSTM5 (SEQ ID NO:11) expressed on …; assay: FACS titration of the human IgG1 on 293-muVSTM5 cells, panel 'Ab binding vs. mouse VSTM5'; y axis MFI (anti-Human A647)
[8] = molecular target: T3, human VSTM5-EGFP (SEQ ID NO:133) …; assay: FACS titration of the human IgG1 on 293-huVSTM5 cells, 293-MT control cells as open squares; y axis MFI (anti-Human A647)
[9] = molecular target: T4, VSTM5-ECD-Ig H:H (human VSTM5 ECD fused to human IgG1 Fc, SEQ ID NO:130) (human); assay: FACS of tosyl-activated beads coated with anti-CD3 and 0 to 320 ug/ml VSTM5-ECD-Ig, stained with Alexa 647 conjugated 53-01.B11
T4 construct: also called VSTM5-ECD-Ig fusion protein; VSTM5HH
Experimental: Tosyl activated beads (Invitrogen, Cat#14013) at 500×10⁶/ml were coated with anti-CD3 mAb and Fc fusion proteins in a two-step protocol: with 50 ug/ml human anti-CD3 clone UTCH1 (R&D systems, Cat# mab 100) in sodium phosphate buffer at 37° C. overnight, followed with 0-320 ug/ml of VSTM5-ECD-Ig fusion protein (human ECD of VSTM5 fused with Fc of human IgG1) for another overnight incubation at 37° C. In the second step, control human Fc was added together with Fc fusion protein so that the total amount of protein is 160 ug/ml (Bioxcell, Cat# BE0096) for the 0, 20, 40, 80 and 160 ug/ml coating condition (except for the 320 ug/ml coating condition).
The amount of anti-CD3 antibody bound to the beads was analyzed using goat anti-mouse 647 (Jackson ImmunoResearch, Cat#115-606-146).

[10] = molecular target: T5, human VSTM5 (SEQ ID NO:132) expressed on HEK-293T cells (human, UniProt A8MXK1 29-200); assay: flow cytometry on HEK293T cells expressing untagged human VSTM5; antibody at 1 nM (0.15 ug/ml), PE goat anti-human secondary 1:200
T5 construct: For the western blot, whole cell extracts were used; no signal peptide limits are stated; also called human VSTM5 untagged; HEK293T recombinant cells expressing human VSTM5
T5 sequence: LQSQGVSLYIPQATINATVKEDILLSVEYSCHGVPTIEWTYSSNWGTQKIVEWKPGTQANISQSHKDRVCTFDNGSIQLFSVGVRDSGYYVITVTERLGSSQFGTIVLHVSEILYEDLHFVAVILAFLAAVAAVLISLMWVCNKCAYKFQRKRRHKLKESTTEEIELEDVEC
Source text: To verify the cell-surface expression of human VSTM5 in HEK293T recombinant cells (FIG. 8C), cells expressing the protein were stained with monoclonal VSTM5 antibody (S53-01-B11, described in Example 12 and 13 herein) and appropriate Isotype control followed by Goat a human PE conjugated Ab (Cat#
Non expressing cell line (HEK293T_pIRESpuro3) was stained under the same conditions and used for a negative control.

[11] = molecular target: T6, VSTM5 on human peripheral blood leukocytes (Homo sapiens, UniProt A8MXK1); assay: FACS, AF647 conjugated antibody on red-cell-lysed human peripheral blood of 3 donors, Fc receptors blocked with human IgG, against Synagis AF647
T6 construct: full-length, cell surface, endogenous; also called endogenous human VSTM5
T6 sequence (membrane protein, looked up): T5 sequence
Experimental: Human peripheral blood was collected from 3 healthy donors. Red blood cells were lysed with RBC Lysis Buffer (eBiosciences Cat#00-4333-57) according to the manufacturer's protocol. Cells were incubated with 400 ug/ml human IgG (Jackson Immunoresearch #009-000-003) for 20 min on ice to block Fc receptors and then stained with cocktails consisting of Synagis® AF647, and anti-VSTM5 antibodies disclosed in Example 12, i.e., anti-VSTM5 AF647 (clone 44-2.E06 or 53-01.B11), anti-CD11b PE (Biolegend Cat#301305), anti-CD45 PerCp Cy5.5 (Biolegend #304207), anti-CD14 FITC (Biolegend cat#352610), or anti-CD41 PE (Biolegend Cat#303705) for 30 min on ice. All AF647 antibodies were conjugated at Compugen using Alexa Fluor® 647 Antibody Labeling Kit (Life Technologies Cat# A-20186) according to the manufacturer's protocol. Cells were washed twice with FACS Buffer (1% BSA, 0.1% Sodium Azide, PBS) and acquired on Intellicyte FACS machine. Data was analyzed by FlowJo and cell subsets defined as below: Monocytes: CD14⁺CD11b⁺, Neutrophils: CD11b⁺CD14^low, Lymphocytes FSC^lowSSC^lo, Eosinophils SSC^hi, platelets: CD45⁻CD41⁺. Staining of anti-VSTM5 antibodies to these cells was compared to staining with Synagis.

Binder	Kd (VSTM5 monomer [1]) [nM]	Kd (VSTM5 monomer [2]) [nM]	ratio of 293-muVSTM5 cell binding / 293-MT control cell binding (FACS) at 22 nM mAb [3] [ratio]	ratio of 293-huVSTM5 cell binding / 293-MT control cell binding (FACS) at 22 nM mAb [4] [ratio]	ratio of 293-muVSTM5 cell binding / 293-MT control cell binding (FACS) at 22 nM mAb [5] [ratio]	ratio of 293-huVSTM5 cell binding / 293-MT control cell binding (FACS) at 22 nM mAb [6] [ratio]	EC50 (read off the curve) [7] [nM]	EC50 (read off the curve) [8] [nM]	binding result [9]	binding result [10]	binding result [11]
B1	657	657	50 to 400	50 to 400	–	–	–	–	–	–	–
B2	–	–	–	–	850 to 2000	850 to 2000	~2	~3	binds	binds	binds
